Experimental data from patent US5858973.

Target: IDX-1 (IDX-1/pBJ5 expressed in NIH-3T3) (Rattus norvegicus) (UniProt P52947)
Experiment: cell_activity

Chain of IDX-1 (IDX-1/pBJ5 expressed in NIH-3T3) (Rattus norvegicus) (P52947 other isoform, or with tags, fused parts or gaps): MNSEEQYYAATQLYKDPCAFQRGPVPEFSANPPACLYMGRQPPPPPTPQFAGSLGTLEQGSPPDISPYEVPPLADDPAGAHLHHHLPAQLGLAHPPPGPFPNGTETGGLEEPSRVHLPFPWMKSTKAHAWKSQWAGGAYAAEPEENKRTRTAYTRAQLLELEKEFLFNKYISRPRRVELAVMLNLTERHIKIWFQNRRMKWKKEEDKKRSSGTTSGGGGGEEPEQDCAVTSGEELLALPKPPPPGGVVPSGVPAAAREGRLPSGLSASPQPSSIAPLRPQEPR

Substance	activity (CAT reporter in NIH-3T3)	activity (parent TKCAT not activated)
SMS900(delta-250/-120)CAT promoter	5 fold	–
SMS900CAT promoter (-900 to +54)	4 fold	–
SMS(-900/-250)TKCAT	–	4 fold
